From publication PMC8217500, “Sequence signatures of two public antibody clonotypes that bind SARS-CoV-2 receptor binding domain” (Nature Communications, 2021)

Columns and labels:
[1] = target: T1, Fc-tagged SARS-CoV-2 receptor-binding domain (RBD), wild type (SARS-CoV-2, Wuhan-Hu-1 (QHD43416.1), UniProt P0DTC2); test: BLI; Fc-tagged RBD (20 ug/ml) loaded on anti-hIgG Fc Capture (AHC) biosensors, Fab in solution at four to five concentrations; Octet Red96e, room temperature, 1x kinetics buffer (1x PBS pH 7.4, 0.01% w/v BSA, 0.002% v/v Tween 20); 1:1 binding model; settings: both partners purified
T1 construct: also called SARS-CoV-2 RBD; WT RBD; not shown: Fc, C-terminal, kept

[2] = target: T2, Fc-tagged SARS-CoV-2 spike receptor-binding domain (RBD) (SARS-CoV-2, Wuhan-Hu-1 (QHD43416.1), UniProt P0DTC2); test: BLI; Fc-tagged RBD (20 ug/ml) loaded on anti-hIgG Fc Capture (AHC) biosensors, Fab in solution; room temperature; 1x PBS pH 7.4, 0.01% BSA, 0.002% Tween 20; 1:1 binding model; settings: both partners purified
T2 construct: also called SARS-CoV-2 RBD; Fc-tagged RBD; source: Expi293F, transiently transfected, purified (KanCapA protein A resin); not shown: Fc (after an SSSSG linker), C-terminal, kept

B1: COV107-23 F58Y Fab (Fab, V domains shown)
VH: EVQLVESGGGLIQPGGSLRLSCAASGFTVSSNYMSWVRQAPGKGLEWVSVIYSGGSTYYADSVKGRFTISRDNSKNTLYLQMNSLRAEDTAVYYCARDLGTGLFDYWGQGTLVTVSS
VL: DIQLTQSPSFLSASVGDRVTITCRASQGISSYLAWYQQKPGKAPKLLIYAASTLQSGVPSRFSGSGSGTEFTLTISSLQPEDFATYYCQQLDSYPPGTFGPGTKVDIK
- Kd [1]: 362 ± 18 nM

B2: CC12.3 F58Y Fab (Fab, V domains shown)
VH: QVQLVESGGGLIQPGGSLRLSCAASGFTVSSNYMSWVRQAPGKGLEWVSVIYSGGSTYYADSVKGRFTISRDNSKSTLYLQMNSLRVEDTAVYYCARDFGDFYFDYWGQGTLVTVSS
VL: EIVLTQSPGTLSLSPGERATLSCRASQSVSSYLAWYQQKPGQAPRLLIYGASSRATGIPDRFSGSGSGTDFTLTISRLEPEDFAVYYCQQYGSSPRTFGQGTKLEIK
- Kd [1]: 97 ± 2 nM

B3: COVA2-20 Y58F Fab (Fab, V domains shown)
VH: EVQLVESGGGLIQPGGSLRLSCAASGFTVSSNYMSWVRQAPGKGLEWVSVIYSGGSTFYADSVKGRFTISRDNSKNTLYLQMNSLRAEDTAVYYCASPLLLTPPDYYYYMDVWGKGTMVTVSS
VL: DVVMTQSPSSLSVSVGDRVTITCRASQGIRNDLGWYQQKPGKAPKRLIYAASSLQSGVPSRFSGSGSGTEFTLTISSLQPEDFATYYCLQHNSYLWTFGQGTKLEIK
- Kd [1]: 286 ± 17 nM

B4: CC12.3 Fab, Y58 variant (heavy chain F58Y) (Fab, V domains shown)
VH: QVQLVESGGGLIQPGGSLRLSCAASGFTVSSNYMSWVRQAPGKGLEWVSVIYSGGSTYYADSVKGRFTISRDNSKSTLYLQMNSLRVEDTAVYYCARDFGDFYFDYWGQGTLVTVSS
VL: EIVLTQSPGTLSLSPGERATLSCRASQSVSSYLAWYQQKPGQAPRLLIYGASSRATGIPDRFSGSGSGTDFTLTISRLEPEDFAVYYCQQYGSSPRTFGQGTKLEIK
notes: also called CC12.3 Y58
- Kd [2]: 97 nM

B5: COVA2-20 Fab, F58 variant (heavy chain Y58F) (Fab, V domains shown)
VH: EVQLVESGGGLIQPGGSLRLSCAASGFTVSSNYMSWVRQAPGKGLEWVSVIYSGGSTFYADSVKGRFTISRDNSKNTLYLQMNSLRAEDTAVYYCASPLLLTPPDYYYYMDVWGKGTMVTVSS
VL: DVVMTQSPSSLSVSVGDRVTITCRASQGIRNDLGWYQQKPGKAPKRLIYAASSLQSGVPSRFSGSGSGTEFTLTISSLQPEDFATYYCLQHNSYLWTFGQGTKLEIK
notes: also called COVA2-20 F58
- Kd [2]: 286 nM
